test: soluble on expression in E. coli; label from the status in PepcDB or PDB records

| Sequence | soluble on expression in E. coli |
| --- | --- |
| GQRELTLFVHGFNSTQTETAYRAAQLAHDIEMPGSLMVYSWPSKGHALGYAYDADSTVFARDGLETVLRRLGEQRIDRLAVVAHSMGSFLLMEALRQIEIATPGWSARHLDGVILISPDLDLDVFRSQMRRIKTVPQPFVVMASEKDNVLNLSRHLRGKQSSERLGQIGSAALITDLPVAVIDTSQFSDEAESGHFIAATSPTLLAMIAEARNMTDLFEAGNVPL | not soluble |
| GRRPRTAFTQNQIEVLENVFRVNCYPGIDILEDLAQKLNLELDRIQIWFQNRRAKLKRSHRESQFLM | soluble |
| GSAEEWYFGKITRRESERLLLNPENPRGTFLVRESETTKGAYCLSVSDFDNAKGLNVKHYKIRKLDSGGFYITSRTQFSSLQQLVAYYSKHADGLCHRLTNVCPTSKEFIVTD | soluble |
| GSAMAPTNDQLTDLQEAHFVVFESEENSESVMDGFVEHPFYTATLNGQKYVVMKTKDDSYWKDLIVEGKRVTTVSKDPKNNSRTLIFPYIPDKAVYNAIVKVVVANIGYEGQYHVRIINQDINTKDDDTSQ | soluble |
| GSARPKLRVVTLVEHPFVFTRESDEDGQCPAGQLCLDPGTNDSARLDALFAALVNGSVPRTLRRCCYGYCIDLLERLAEDLAFDFELYIVGDGKYGALRDGRWTGLVGDLLAGRAHMAVTSFSINSARSQVVDFTSPFFSTSLGIMVRTRGTELSGIHDPKLHHPSQGFRFGTVWESSAEAYIKASFPEMHAHMRRHSAPTTPHGVAMLTSDPPKLNAFIMDKSLLDYEVSIDADCKLLTVGKPFAIEGYGIGLPQNSPLTSNLSEFISRYKSSGFIDLLHDKWYKMVPCGK | soluble |
| GSEDINRNPLLPTKEDEKMDGVIYGAYLPNLEKSVIPIGTASESTEPVNRYQIGVNLAGDAWAGYMSPRDNKFNGSKNFTNYFMYENWVNYVYSFMVTDVYSPWMQIKRISQDEGTRNDEIYALAQIIKIAALHRTTDMFGPIPYSQVGKGSFKVAYDSQESVYRSFLKELEEAVQTLDDYSNKSKEVLPAFDIVYNGDVNKWMRFANSLMLRLAIRVRFADAGLAKEYAEKAVKHPAGLINSKELAAQMGKGAGLQMKNPLKVINEEYNDTRMGATIYSYLAGYNDARAAVYFVKNNGFKAVRCGIAKSGDAYNGFTRPNVHEDDPLYWMKASEVCFLKAEGALAGFDMGGSAGDFYNAGIRMSFSENGLDNSSAETYLKDSTRKPANYTDTSNGELSANAPSSITIRWENGATEEEKLERIITQKYLAIFPNGQEAWTEWRRTGYPRQIVVAENKTNSAVLIGNGYDLGGVRRLPYPRTEYEQNGENLHNAISQYLGGVDNAATKVWWDKKSK | soluble |
| GSHMAEDEPFSGAKKLRHLLENTDELIVCPGVYDGLSARTAMELGFKSLYMTGAGTTASRLGQPDLAIAQLHDMRDNADMIANLDPFGPPLIADMDTGYGGPIMVARTVEHYIRSGVAGAHLEDQILTKRCGHLSGKKVVSRDEYLVRIRAAVATKRRLRSDFVLIARTDALQSLGYEECIERLRAARDEGADVGLLEGFRSKEQAAAAVAALAPWPLLLNSVENGHSPLITVEEAKAMGFRIMIFSFATLAPAYAAIRETLVRLRDHGVVGTPDGITPVRLFEVCGLQDAMEVDNGAGGKAFSEGV | soluble |
| GSHMASEKVAVETSVYLSELEWKSASTGYGEIQKDASCDGNTITLKGENGEKVSYDKGIGTHAHSEIVYSLEGLDYYDYFETFVGVDQEMAGTVASISFEVYLDNEKVFDSGLMTGDTTQKHVKVPIAGKNTLKLVVKDGGDSIGSDHGSFGDAKLT | soluble |
| GSHMASMTGGQQMGRGSEFRSMTAIEDILQITTDPSDTRGYSLLKSEEVPQGSTLGVDFIDTLLLYQLTENEKLDKPFEYLNDCFRRNQQQKRITKNKPNAESLHSTFQEIDRLVIGYGVVALQIENFCMNGAFINYITGIVSNVNSYTDFLSQIIQRAILEGTALDLLNAVFPTLLEYCNKHVSHFDLNESVIYNNVLTIFELFVTFKPIAEIFTKIDGFFADYSCKPQDFERKTILGPILSLSPIEAAVAIRNYGDNLLRSKQQTAMIHESLQAEHKVVIDRLFFIVDKLVRGSLNSRTDMISYFAHIANKNHLRRADHPPFKELSSNGFMSNITLLLVRFSQPFLDISYKKIDKIDANYFNNPSLFIDLSGETRLNSDFKEADAFYDKNRKTADSKPNFISDCFFLTLTYLHYGLGGTLSFEEKMGSEIKALKEEIEKVKKIAANHDVFARFITAQLSKMEKALKTTESLRFALQGFFAHRSLQLEVFDFICGASTFLIRVVDPEHEFPFKQIKLPLIPDQIGVENVDNADFLRAHAPVPFKYYPEFVVEGPVNYSLYISKYQTSPIFRNPRLGSFVEFTTMVLRCPELVSNPHLKGKLVQLLSVGAMPLTDNSPGFMMDIFEHDELVNKNLLYALLDFYVIVEKTGSSSQFYDKFNSRYSISIILEELYYKIPSYKNQLIWQSQNNADFFVRFVARMLNDLTFLLDEGLSNLAEVHNIQNELDNRARGAPPTREEEDKELQTRLASASRQAKSSCGLADKSMKLFEIYSKDIPAAFVTPEIVYRLASMLNYNLESLVGPKCGELKVKDPQSYSFNPKDLLKALTTVYINLSEQSEFISAVAKDERSFNRNLFVRAVDILGRKTGLASPEFIEKLLNFANKAEEQRKADEEEDLEYGDVPDEFLDPLMYTIMKDPVILPASKMNIDRSTIKAHLLSDSTDPFNRMPLKLEDVTPNEELRQKILCFKKQKKEEAKHKASE | soluble |
| GSHMASMTGGQQMGRGSMNTEELQVAAFEIILNSGNARSIVHEAFDAMREKNYILAEQKLQEANDELLKAHQAQTDLLQEYASGTEIKIEIIMVHAQDHLMTTMTLREVAIEMLELYKKS | soluble |
| GSHMASTISVKDENGTVKVPKDAKRIVVLEYSFADALAALDVKPVGIADDGKKKRIIKPVREKIGDYTSVGTRKQPNLEEISKLKPDLIIADSSRHKGINKELNKIAPTLSLKSFDGDYKQNINSFKTIAKALNKEKEGEKRLAEHDKLINKYKDEIKFDRNQKVLPAVVAKAGLLAHPNYSYVGQFLNELGFKNALSDDVTKGLSKYLKGPYLQLDTEHLADLNPERMIIMTDHAKKDSAEFKKLQEDATWKKLNAVKNNRVDIVDRDVWARSRGLISSEEMAKELVELSKKEQK | soluble |
| GSHMIAPLSVKDNDKWVDTHVGKTTEIHLKGNPTTGYMWTRVGFVGKDVLSDEILEVVCKYTPTPSSTPMVGVGGIYVVLVKPRKRGHHTLELVYTRPFEGIKPENERYTLHLNVK | soluble |
| GSHMNKKSFQCSNCSVTETIRWRNIRSKEGIQCNACFIYQRKYNKTRPVTAVNKYQKRKLKVQETNGVDSF | soluble |
| GSHMRSEFASGNTYALYVRDTLQPGMRVRMLDDYEEISAGDEGEFRQSNNGVPPVQVFWESTGRTYWVHWHMLEILGFEEDIEDMVEADEYQGAVASRVLGRALP | soluble |
| GSHMSQVEKDNTQALIPTMNMARQLSEASAWELFAAQNLTSADNEKMWQAQGRMLTAQSLKINALLQALREQGFDTTAIEQQEQEISRSLRQQGELVGQRLQLRQQQQQLSQQIVAAADEIARLAQGQANNATTSAGATQAGIYDLIEQDQRQAAESALDRLIDIDLEYVNQMNELRLSALRVQQMVMNLGLEQIQKNAPTLEKQLNNAVKILQRRQIRIEDPGVRAQVATTLTTVSQYSDLLALYQQDSEISNHLQTLAQNNIAQFAQFSSEVSQLVDTIELRNQHGLA | soluble |
| GSHMTGPVTKEDLGRATWTFLHTLAAQYPEKPTRQQKKDVKELMTILSRMYPCRECADHFKEILRSNPAQAGSQEEFSQWLCHVHNTVNRSLGKLVFPCERVDARWGKLECEQKSCDLHGTSMDF | soluble |
| GSHMVGPTYSTAVLNCLKNLDLWCFDVFSLNQAADDHALRTIVFELLTRHNLISRFKIPTVFLMSFLDALETGYGKYKNPYHNQIHAADVTQTVHCFLLRTGMVHCLSEIELLAIIFAAAIHDYEHTGTTNSFHIQTKSECAIVYNDRSVLENHHISSVFRLMQDDEMNIFINLTKDEFVELRALVIEMVLATDMSCHFQQVKTMKTALQQLERIDKPKALSLLLHAADISHPTKQWLVHSRWTKALMEEFFRQGDKEAELGLPFSPLCDRTSTLVAQSQIGFIDFIVEPTFSVLTDVAEKSVQPLADEDSKSKNQPSFQWRQPSLDVEVGDPNPDVVSFRSTWVKRIQENKQKWKERAASGITN | soluble |
| GSHMYEYPVFSHVQAGMFSPELRTFTKGDAERWVSTTKKASDSAFWLEVEGNSMTTPTGSKTSFPDGMLILVDPEQAVEPGDFCIARLGGDEFTFKKLIRDSGQVFLQPLNPQYPMIPCNESCSVVGKVIASQ | soluble |
| GSHNLACPTPKEDGLAQQQTQLNLRSLLVNPEGPTLMRLNSVQSSERPLFLVHPIEGSTTVFHSLASRLSIPTYGLQCTRAAPLDSIHSLAAYYIDCIRQVQPEGPYRVAGYSYGACVAFEMCSQLQAQQSPAPTHNSLFLFDGSPTYVLAYTQSYRAKLTPGCEAEAETEAICFFVQQFTDMEHNRVLEALLPLKGLEERVAAAVDLIIKSHQGLDRQELSFAARSFYYKLRAAEQYTPKAKYHGNVMLLRAKTGGAYGEDLGADYNLSQVCDGKVSVHVIEGDHRTLLEGSGLESIISIIHSSLAEPRVSVREG | soluble |
| GSKGDSKETRLTLMEEVLLLGLKDREGYTSFWNDCISSGLRGCMLIELALRGRLQLEACGMRRKSLLTRKVICKSDAPTGDVLLDEALKHVKETQPPETVQNWIELLSGETWNPLKLHYQLRNVRERLAKNLVEKGVLTTEKQNFLLFDMTTHPLTNNNIKQRLIKKVQEAVLDKWVNDPHRMDRRLLALIYLAHASDVLENAFAPLLDEQYDLATKRVRQLLDLDPEVECLKANTNEVLWAVVAAFTK | soluble |
| GSKKHSVLHLVPVNITSKADSDVTEVMWQPVLRRGRGLEAQGDIVRVWDTGIYLLYSQVLFHDVTFTMGQVVSREGQGRRETLFRCIRSMPSDPDRAYNSCYSAGVFHLHQGDIITVKIPRANAKLSLSPHGTFLGFVKL | soluble |
| GSKKRQRFVDKNGRCNVQHGNLGSERAETLMFSEHAVISMRDGKLTLMFRVGNLRNSHMVEAQIRCKLLKSRQTPEGEFLPLDQLELDVGFSTGADQLFLVSPLTICHVIDAKSPFYDLSQRSMQTEQFEVVVILEGIVETTGMTCQARTSYTEDEVLWGHRFFPVISLEEGFFKVDYSQFHATFEVPTPPYSVKEQEEMLLMSSPL | soluble |
| GSLYKMSSINADFAFNLYRRFTVETPDKNIFFSPVSISAALVMLSFGACCSTQTEIVETLGFNLTDTPMVEIQHGFQHLICSLNFPKKELELQIGNALFIGKHLKPLAKFLNDVKTLYETEVFSTDFSNISAAKQEINSHVEMQTKGKVVGLIQDLKPNTIMVLVNYIHFKAQWANPFDPSKTEDSSSFLIDKTTTVQVPMMHQMEQYYHLVDMELNCTVLQMDYSKNALALFVLPKEGQMESVEAAMSSKTLKKWNRLLQKGWVDLFVPKFSISATYDLGATLLKMGIQHAYSENADFSGLTEDNGLKLSNAAHKAVLHIGEKGTEAAAVPEVELSDQPENTFLHPIIQIDRSFMLLILERSTRSILFLGKVVNPTEA | soluble |
| GSMAGWQSYVDNLMCDGCCQEAAIVGYCDAKYVWAATAGGVFQSITPAEIDVIIGKDREGFFTNGLTLGGKKCSVIRDSLYVDSDCTMDIRTKSQGGEPTYNVAVGRAGRVLVFVMGKEGVHGGGLNKKAYSMAKYLRDSGF | soluble |
| GSMKKWSDTEVFEMLKRMYARVYGLVQGVGFRKFVQIHAIRLGIKGYAKNLPDGSVEVVAEGYEEALSKLLERIKQGPPAAEVEKVDYSFSEYKGEFEDFETY | soluble |
| GSMSSFLGKWKLSESHNFDAVMSKLGVSWATRQIGNTVTPTVTFTMDGDKMTMLTESTFKNLSCTFKFGEEFDEKTSDGRNVKSVVEKNSESKLTQTQVDPKNTTVIVREVDGDTMKTTVTVGDVTAIRNYKRLS | soluble |
